Several values for one entry are separate records, joined by “and”; a condition that tells them apart may be missing. Identical values can stand only once.
Tests used:
[1] = target: G20c portal protein L49C single mutant (bacteriophage G20c); assay: negative-stain transmission electron microscopy
[2] = target: G20c portal protein L49C conjugated with maleimide-porphyrin (bacteriophage G20c); assay: SEC
[3] = target: G20c portal protein L49C/V325G/I328G conjugated with maleimide-porphyrin (bacteriophage G20c); assay: SEC
[4] = target: G20c portal protein L49C/V325G/I328G triple mutant (bacteriophage G20c); assay: negative-stain transmission electron microscopy
[5] = target: G20c portal protein V325G mutant (bacteriophage G20c); assay: crystal structure
[6] = target: G20c portal protein V325G/I328G double mutant (bacteriophage G20c); assay: X-ray diffraction, self-rotation function

With “G20c portal protein L49C single mutant (natural protein)” the stoichiometry N [1] was 12.
For “G20c portal protein L49C conjugated with maleimide-porphyrin (natural protein)”, the stoichiometry N [2] was 12 and 24.
For “G20c portal protein L49C/V325G/I328G conjugated with maleimide-porphyrin (natural protein)”, the stoichiometry N [3] was 12 and 24.
For “G20c portal protein L49C/V325G/I328G triple mutant (natural protein)”, the stoichiometry N [4] was 12.
For “G20c portal protein V325G mutant (natural protein)”, the stoichiometry N [5] was 12.
Substance “G20c portal protein V325G/I328G double mutant (natural protein)” has a stoichiometry N [6] of 12.
